# Results: IntAct's records for PubMed 16229834
# B1: PRKC apoptosis WT1 regulator protein (Rattus norvegicus (Rat)), Q62627 (parent)
# chain: MATGGYRSSGSTTDFLEEWKAKREKMRAKQNPVGPGSSGGDPAAKSPAGPLAQTTAAGTSELNHGPAGAAAPAAPGPGALNCAHGSSALPRGAPGSRRPEDECPIAAGAAGAPASRGDEEEPDSAPEKGRSSGPSARKGKGQIEKRKLREKRRSTGVVNIPAAECLDEYEDDEAGQKERKREDAITQQNTIQNEAASLPDPGTSYLPQDPSRTVPGRYKSTISAPEEEILNRYPRTDRSGFSRHNRDTSAPANFASSSTLEKRIEDLEKEVLRERQENLRLTRLMQDKEEMIGKLKEEIDLLNRDLDDMEDENEQLKQENKTLLKVVGQLTR
# partner: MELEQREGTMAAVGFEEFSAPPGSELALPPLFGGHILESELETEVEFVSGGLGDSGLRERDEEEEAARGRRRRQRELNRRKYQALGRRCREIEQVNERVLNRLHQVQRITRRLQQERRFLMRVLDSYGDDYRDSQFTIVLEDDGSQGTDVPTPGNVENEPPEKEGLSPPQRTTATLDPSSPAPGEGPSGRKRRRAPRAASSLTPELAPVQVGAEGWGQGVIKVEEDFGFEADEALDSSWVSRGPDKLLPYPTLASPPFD
# Variants of: B1
# Settings: with tfpt_rat Tfpt
row,effect of a mutation on the interaction,Variant
1,disrupting interaction,L295A;L316A;L330A
